Entries after “also recorded” stand apart in the source; their conditions may differ. Read-outs that look alike come from different tables or passages of the source.
Columns and labels:
[1] = system: EGFR-over-expressing MDAMB468 cells; test: Internalization/uptake of anti-EGFR immunoliposomes (microscopy, flow cytometry); format: cell-based, Human
Method: (§1) scFv-mediated internalization of fluorescent immunoliposomes was analyzed and quantified by microscopy and flow cytometry. C10 scFv fragments were inserted into liposomes at ratios of 5, 10, 15, 30 and 60 μg scFv/μmol phospholipid (Mamot et al. (2003) Cancer Res. 63: 3154-3161). scFv densities of 16, 32, 48, 96 and 192 scFv/liposome were calculated on the basis of the molecular mass of scFv (26 kDa) and the approximate number of phospholipid molecules/liposome (80,000). The conjugation technology for scFv to Mal-PEG-DSPE is remarkably reproducible with an efficiency of 77.3(±3.1) % (range 75-82% over six batches) (Nellis et al. (2005) Biotechnol. Prog. 21: 205-220). […] For microscopy studies, 150,000 cells were incubated with 50 μM PL of untargeted and EGFR-targeted ILs labeled with DiIC18(3)-DS in a 12-well plate for 2 h at 37° C., followed by washing with PBS and further incubation at 37° C. for 2 h. The cells were then analyzed by using an inverted fluorescence microscope (Nikon Eclipse, TE300) with a 540/25 nm band-pass filter for excitation and a long-pass filter at 565 nm for emission. For quantitative uptake of immunoliposomes, 250,000 cells were incubated with EGFR-targeted ILs labeled with ADS645 in a six-well plate for 2 h at 37° C., washed with PBS, removed in trypsin solution and fluorescence quantified with a FACSAria instrument (Beckton Dickinson). To determine the effect of EGF competition on internalization of EGFR-targeted ILs, IL internalization was quantified as described above, except that 50 μM targeted ILs and cells were incubated with EGF concentrations ranging from 0.2-25 nM. ANOVA (analysis of variance) was used to analyze the statistical differences of the quantified uptake.

MDAMB453 cells = test: Binding specificity of scFv by flow cytometry; details: MDAMB453, only 10^4 EGFR/cell
biotinylated EGFR-ECD = target: T1, biotinylated EGFR-ECD (Homo sapiens, UniProt P00533); test: Yeast-displayed scFv affinity for biotinylated EGFR-ECD by flow cytometry; format: binding; details: concentrations as high as 8 μM
T1 construct: Recombinant EGFR-ECD was expressed in HEK293 cells; biotin (chemical label, NHS-sulfo-LC-biotin on amines); made in house; host or cells: HEK293 cells
Method: Generally, six to eight different concentrations of biotinylated EGFR were used to span a range of concentrations from ten times above to ten times below the KD. Incubation volumes, times and yeast numbers were chosen to ensure that the studies were done in at least fivefold antigen excess and that equilibrium had been achieved (Razai et al. (2005) J. Mol. Biol. 351: 158-169). For anti-EGFR scFv, […] in 50 μl were incubated with biotinylated EGFR-ECD for 1 h at room temperature. […] Only yeast displaying scFv (as determined by binding of SV5 mAb) were gated for affinity measurements.

[2] = target: T2, EGFR-expressing A431 cells (Homo sapiens, UniProt P00533); details: Heitner et al. (2001); read-out: KD of C10 scFv previously measured on EGFR-expressing tumor cells; cited from earlier work
T2 construct: host or cells: A431 cells

MDAMB468 cells = test: Binding specificity of scFv by flow cytometry; set-up: species or system Human; details: MDAMB468, 1×10^6-3×10^6 EGFR/cell
[3] = target: T3, EGFR (vIII) stably transfected NR6M cells (Homo sapiens, UniProt P00533, DELINS30-297G); test: Binding specificity of scFv by flow cytometry
T3 construct: expressed in transfected cells; host or cells: NR6M cells (NR6 stably transfected with EGFR (vIII)), gift of Dr Daryl D Bigner
Method: (§2) The binding of C10 scFv and C10 mutants to EGFR (vIII) stably transfected NR6M cells and parental NR6 cells was also measured.

parental NR6 cells = test: Binding specificity of scFv by flow cytometry; details: NR6, EGFR negative
Method: as §2

MDAMB231 cells = test: Uptake of EGFR immunoliposomes into cells of lower EGFR density; format: cell-based, human; details: all scFv densities studied; 480,000 EGFR/cell
Method: as §1
To determine the impact of receptor density on IL uptake, we measured the uptake of the different ILs into MDAMB231 cells which express 480,000 EGFR/cell as determined by flow cytometry using Quantum Simply Cellular anti-Human IgG beads (Bangs Laboratories Inc.). […] Uptake into MDAMB231 cells increased with increasing scFv density, reaching a plateau at an IL scFv density of 74 scFv/IL for P2/4 scFv and at 37 scFv/IL for 2224 scFv (FIG. 6C).

A431 cells = target: T4, A431 cells (Homo sapiens, UniProt P00533); test: Binding specificity of scFv by flow cytometry; details: A431, 1×10^6-3×10^6 EGFR/cell
T4 construct: endogenous in cells; host or cells: A431 cells

[4] = target: T5, MDAMB468 cells expressing EGFR (Homo sapiens, UniProt P00533); test: Immunoliposome binding affinity for cells expressing EGFR (flow cytometry); details: read-out: Apparent KD of immunoliposomes
T5 construct: Human breast cancer MDAMB468 cells expressing EGFR; endogenous in cells; host or cells: MDAMB468 breast carcinoma cells
Method: Human breast cancer MDAMB468 cells expressing EGFR were grown to 80-90% confluence in L15 medium supplemented with 10% FBS and harvested by trypsinization. ILs labeled with DiIC18(3)-DS were incubated overnight with 10^4 cells at concentrations of IL ranging from 0.31-2.5 nM. The concentration of IL was converted from the concentration of phospholipid on the basis of the approximate number of phospholipid molecules per liposome (80,000). Cell binding was performed at 4° C. in FACS buffer in adequate volume to ensure a fivefold excess of ILs and that the reaction had come to equilibrium. After two washes with 200 μl of FACS buffer, the amount of cell-bound ILs was quantified by flow cytometry in a FACS LSRII (Becton Dickinson). Data analysis was the same as for the measurement of scFv KD.

B1: C10: parental (wild-type) internalizing anti-EGFR human scFv from a non-immune phage antibody library; SEQ ID NO:1 (protein)
scFv: EVQLVQSGAEVKKPGSSVKVSCKASGGTFSSYAISWVRQAPGQGLEWMGGIIPIFGTANYAQKFQGRVTITADESTSTAYMELSSLRSEDTAVYYCAREEGPYCSSTSCYGAFDIWGQGTLVTVSS
modifications: Variable chain of single chain antibody.
endocytosis of ILs by fluorescence microscopy ([1]; 74 scFv/liposome, MDAMB468): endocytosed efficiently
IL uptake compared to ILs from higher affinity scFv ([1]; scFv densities of 74 scFv/liposome or less): less uptake
scFv binding/staining of cells (MDAMB453 cells): did not stain
binding of yeast-displayed scFv to biotinylated recombinant EGFR (biotinylated EGFR-ECD): minimal binding
Kd [2]: 217 nM
scFv binding/staining of cells (MDAMB468 cells): stained
scFv binding/staining of cells [3]: strong staining; also recorded: stained
scFv binding/staining of cells (parental NR6 cells): minimal binding; also recorded: did not stain
IL uptake into MDAMB231 cells compared to A431 cells (MDAMB231 cells): significantly less uptake
scFv binding/staining of cells (A431 cells): stained
Kd ([4]; 74 scFv/liposome): 1.75 nM
Kd ([4]; 148 scFv/liposome): 0.36 nM

Source: patent US20100009390A1, “MUTANT ANTIBODIES WITH HIGH AFFINITY FOR EGFR” (THE REGENTS OF THE UNIVERSITY OF CALIFORNIA, priority 2008, published 2010)
